# Measurements as given in patent US20230322940A1 (published 2023).
# B1: fusion protein shown in SEQ ID NO. 4 (anti-CD44 single-chain antibody, anti-CD133 single-chain antibody, CD28, CD3), expressed on CAR-T 2 cells (other)
# chain: QVQLVESGGGVVQPGRSLRLSCAASGFTFSSYGMHWVRQAPGKGLEWVAVIWYDGSNKFYADSVKGRFTISRDNSKNTLYLQMNSLRAEDTAVYYCARRSDYRGYYGMDVWGQGTTVTVSSGSTSGGGSGGGSGGGGSSEIVLTQSPATLSLSPGERATLSCRASQSVINYLAWYQQKPGQAPRLLIYDASNRASGIPARFSGSGSGTDFTLTISSLEPEDFAVYYCQQRRNWPLTFGGGTKVEIKGGGGSGGGGSGGGGSQVQLVQSGAEVKKPGASVKVSCKASGYTFTDFEMHWVRQAPGQGLEWMGDIDPGTGDTAYNLKFKGRVTMTTDTSTSTAYMELRSLRSDDTAVYYCALGAFVYWGQGTLVTVSSGSTSGGGSGGGSGGGGSSDVVMTQSPLSLPVTPGEPASISCRSSQSLANSYGNTYLSWYLQKPGQSPQLLIYGISNRFSGVPDRFSGSGSGTDFTLKISRVEAEDVGVYYCLQGTHQPYTFGQGTKLEIKTTTPAPRPPTPAPTIASQPLSLRPEACRPAAGGAVHTRGLDFACDIYIWAPLAGTCGVLLLSLVITLYCRSKRSRLLHSDYMNMTPRRPGPTRKHYQPYAPPRDFAAYRSRVKFSRSADAPAYKQGQNQLYNELNLGRREEYDVLDKRRGRDPEMGGKPRRKNPQEGLYNELQKDKMAEAYSEIGMKGERRRGKGHDGLYQGLSTATKDTYDALHMQALPPR
# B2: fusion protein shown in SEQ ID NO. 7 (anti-CD44 single-chain antibody, CD28, truncated body of IL7Rα, CD3, T2A, anti-TIM3 single-chain antibody), expressed on … (other)
# chain: QVQLVESGGGVVQPGRSLRLSCAASGFTFSSYGMHWVRQAPGKGLEWVAVIWYDGSNKFYADSVKGRFTISRDNSKNTLYLQMNSLRAEDTAVYYCARRSDYRGYYGMDVWGQGTTVTVSSGSTSGGGSGGGSGGGGSSEIVLTQSPATLSLSPGERATLSCRASQSVINYLAWYQQKPGQAPRLLIYDASNRASGIPARFSGSGSGTDFTLTISSLEPEDFAVYYCQQRRNWPLTFGGGTKVEIKTTTPAPRPPTPAPTIASQPLSLRPEACRPAAGGAVHTRGLDFACDIYIWAPLAGTCGVLLLSLVITLYCRSKRSRLLHSDYMNMTPRRPGPTRKHYQPYAPPRDFAAYRSKKRIKPIVWPSLPDHKKTLEHLCKKPRKNLNVSFNPESFLDCQIHRVDDIQARDEVEGFLQDTFPQQLEESEKQRLLGSNQEEAYVTMSSFYQNQRVKFSRSADAPAYKQGQNQLYNELNLGRREEYDVLDKRRGRDPEMGGKPRRKNPQEGLYNELQKDKMAEAYSEIGMKGERRRGKGHDGLYQGLSTATKDTYDALHMQALPPREGRGSLLTCGDVEENPGPMTNKCLLQIALLLCFSTTALSQVQLQQSGPGLVKPSHTLSLTCTVSGGSISSGGYYWSWTRQHPGMGLEWIGYISYSGSIYYTPSLKSRLTISVDTSKNQFSLKLSSVTAADTAVYYCASLDSWGSNRDYWGQGTLVTVSSGGGGSEIVLTQSPATLSLSPGERATLSCRASQSVSSYLAWYQQKPGQAPRLLIYDASNRATGIPARFSGSGSGTDFTLTISSLEPEDFAVYYCQQRSNWPLTFGGGTKVEIK
# B3: fusion protein shown in SEQ ID NO. 8 (anti-CD44 single-chain antibody, anti-CD133 single-chain antibody, CD28, truncated body of IL7Rα, CD3, T2A, anti-TIM3 … (other)
# chain: QVQLVESGGGVVQPGRSLRLSCAASGFTFSSYGMHWVRQAPGKGLEWVAVIWYDGSNKFYADSVKGRFTISRDNSKNTLYLQMNSLRAEDTAVYYCARRSDYRGYYGMDVWGQGTTVTVSSGSTSGGGSGGGSGGGGSSEIVLTQSPATLSLSPGERATLSCRASQSVINYLAWYQQKPGQAPRLLIYDASNRASGIPARFSGSGSGTDFTLTISSLEPEDFAVYYCQQRRNWPLTFGGGTKVEIKGGGGSGGGGSGGGGSQVQLVQSGAEVKKPGASVKVSCKASGYTFTDFEMHWVRQAPGQGLEWMGDIDPGTGDTAYNLKFKGRVTMTTDTSTSTAYMELRSLRSDDTAVYYCALGAFVYWGQGTLVTVSSGSTSGGGSGGGSGGGGSSDVVMTQSPLSLPVTPGEPASISCRSSQSLANSYGNTYLSWYLQKPGQSPQLLIYGISNRFSGVPDRFSGSGSGTDFTLKISRVEAEDVGVYYCLQGTHQPYTFGQGTKLEIKTTTPAPRPPTPAPTIASQPLSLRPEACRPAAGGAVHTRGLDFACDIYIWAPLAGTCGVLLLSLVITLYCRSKRSRLLHSDYMNMTPRRPGPTRKHYQPYAPPRDFAAYRSKKRIKPIVWPSLPDHKKTLEHLCKKPRKNLNVSFNPESFLDCQIHRVDDIQARDEVEGFLQDTFPQQLEESEKQRLLGSNQEEAYVTMSSFYQNQRVKFSRSADAPAYKQGQNQLYNELNLGRREEYDVLDKRRGRDPEMGGKPRRKNPQEGLYNELQKDKMAEAYSEIGMKGERRRGKGHDGLYQGLSTATKDTYDALHMQALPPREGRGSLLTCGDVEENPGPMTNKCLLQIALLLCFSTTALSQVQLQQSGPGLVKPSHTLSLTCTVSGGSISSGGYYWSWTRQHPGMGLEWIGYISYSGSIYYTPSLKSRLTISVDTSKNQFSLKLSSVTAADTAVYYCASLDSWGSNRDYWGQGTLVTVSSGGGGSEIVLTQSPATLSLSPGERATLSCRASQSVSSYLAWYQQKPGQAPRLLIYDASNRATGIPARFSGSGSGTDFTLTISSLEPEDFAVYYCQQRSNWPLTFGGGTKVEIK
# B4: fusion protein shown in SEQ ID NO. 5 (anti-CD44 single-chain antibody, CD28, truncated body of IL7Rα, CD3), expressed on CAR-T 3 cells (other)
# chain: QVQLVESGGGVVQPGRSLRLSCAASGFTFSSYGMHWVRQAPGKGLEWVAVIWYDGSNKFYADSVKGRFTISRDNSKNTLYLQMNSLRAEDTAVYYCARRSDYRGYYGMDVWGQGTTVTVSSGSTSGGGSGGGSGGGGSSEIVLTQSPATLSLSPGERATLSCRASQSVINYLAWYQQKPGQAPRLLIYDASNRASGIPARFSGSGSGTDFTLTISSLEPEDFAVYYCQQRRNWPLTFGGGTKVEIKTTTPAPRPPTPAPTIASQPLSLRPEACRPAAGGAVHTRGLDFACDIYIWAPLAGTCGVLLLSLVITLYCRSKRSRLLHSDYMNMTPRRPGPTRKHYQPYAPPRDFAAYRSKKRIKPIVWPSLPDHKKTLEHLCKKPRKNLNVSFNPESFLDCQIHRVDDIQARDEVEGFLQDTFPQQLEESEKQRLLGSNQEEAYVTMSSFYQNQRVKFSRSADAPAYKQGQNQLYNELNLGRREEYDVLDKRRGRDPEMGGKPRRKNPQEGLYNELQKDKMAEAYSEIGMKGERRRGKGHDGLYQGLSTATKDTYDALHMQALPPR
# B5: fusion protein shown in SEQ ID NO. 6 (anti-CD44 single-chain antibody, CD28, CD3, T2A, anti-TIM3 single-chain antibody), expressed on CAR-T 4 cells (other)
# chain: QVQLVESGGGVVQPGRSLRLSCAASGFTFSSYGMHWVRQAPGKGLEWVAVIWYDGSNKFYADSVKGRFTISRDNSKNTLYLQMNSLRAEDTAVYYCARRSDYRGYYGMDVWGQGTTVTVSSGSTSGGGSGGGSGGGGSSEIVLTQSPATLSLSPGERATLSCRASQSVINYLAWYQQKPGQAPRLLIYDASNRASGIPARFSGSGSGTDFTLTISSLEPEDFAVYYCQQRRNWPLTFGGGTKVEIKTTTPAPRPPTPAPTIASQPLSLRPEACRPAAGGAVHTRGLDFACDIYIWAPLAGTCGVLLLSLVITLYCRSKRSRLLHSDYMNMTPRRPGPTRKHYQPYAPPRDFAAYRSRVKFSRSADAPAYKQGQNQLYNELNLGRREEYDVLDKRRGRDPEMGGKPRRKNPQEGLYNELQKDKMAEAYSEIGMKGERRRGKGHDGLYQGLSTATKDTYDALHMQALPPREGRGSLLTCGDVEENPGPMTNKCLLQIALLLCFSTTALSQVQLQQSGPGLVKPSHTLSLTCTVSGGSISSGGYYWSWTRQHPGMGLEWIGYISYSGSIYYTPSLKSRLTISVDTSKNQFSLKLSSVTAADTAVYYCASLDSWGSNRDYWGQGTLVTVSSGGGGSEIVLTQSPATLSLSPGERATLSCRASQSVSSYLAWYQQKPGQAPRLLIYDASNRATGIPARFSGSGSGTDFTLTISSLEPEDFAVYYCQQRSNWPLTFGGGTKVEIK
# B6: fusion protein shown in SEQ ID NO. 3 (anti-CD44 single-chain antibody, CD28, CD3), expressed on CAR-T 1 cells (other)
# chain: QVQLVESGGGVVQPGRSLRLSCAASGFTFSSYGMHWVRQAPGKGLEWVAVIWYDGSNKFYADSVKGRFTISRDNSKNTLYLQMNSLRAEDTAVYYCARRSDYRGYYGMDVWGQGTTVTVSSGSTSGGGSGGGSGGGGSSEIVLTQSPATLSLSPGERATLSCRASQSVINYLAWYQQKPGQAPRLLIYDASNRASGIPARFSGSGSGTDFTLTISSLEPEDFAVYYCQQRRNWPLTFGGGTKVEIKTTTPAPRPPTPAPTIASQPLSLRPEACRPAAGGAVHTRGLDFACDIYIWAPLAGTCGVLLLSLVITLYCRSKRSRLLHSDYMNMTPRRPGPTRKHYQPYAPPRDFAAYRSRVKFSRSADAPAYKQGQNQLYNELNLGRREEYDVLDKRRGRDPEMGGKPRRKNPQEGLYNELQKDKMAEAYSEIGMKGERRRGKGHDGLYQGLSTATKDTYDALHMQALPPR
# Target: CD44 on CD44-positive and CD133-positive glioma stem cells GSC20 (UniProt P16070 21-742)
# Test: cell-based or functional assay
"Lysis rate of glioma stem cells by CAR-T cells (LDH release), effect-target ratio 1:1 [%]","Lysis rate of glioma stem cells by CAR-T cells (LDH release), effect-target ratio 2:1 [%]","Lysis rate of glioma stem cells by CAR-T cells (LDH release), effect-target ratio 3:1 [%]","Lysis rate of glioma stem cells by CAR-T cells (LDH release), effect-target ratio 5:1 [%]",Binder
14,23.2,41,56.9,B1
30.3,48.5,51.2,81.2,B2
31.1,50,62.8,86.8,B3
15.2,35.2,44,62.5,B4
22.2,37.3,56.2,61.4,B5
9.93,12.2,35,57.3,B6
